We go through nine molecules from US20150203577A1 (Chugai, published 2015).

Test [1] has as its target T1, mouse FcγRIII (mouse, UniProt P08508 31-215).
T1 construct: Extracellular domain with C-terminal His tag, made in FreeStyle 293 cells; also called mFcγRIII; mFcgRIII
T1 chain: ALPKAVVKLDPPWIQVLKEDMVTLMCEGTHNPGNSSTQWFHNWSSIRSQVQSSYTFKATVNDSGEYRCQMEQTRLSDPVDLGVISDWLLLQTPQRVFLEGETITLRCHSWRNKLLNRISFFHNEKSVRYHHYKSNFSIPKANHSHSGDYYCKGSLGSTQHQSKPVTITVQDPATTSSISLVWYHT
Nature of the test: SPR (Biacore), KD of H237-mIgG1/MRAL-k0 (same run) / KD of variant. (In general: In SPR one partner is held on a chip, and binding of the other changes the refractive index at the surface.)

Test [2] has as its target T2, mouse FcγRII (mouse, UniProt P08101 30-210).
T2 construct: Extracellular domain with C-terminal His tag, made in FreeStyle 293 cells; also called mFcγRII; mFcgRII
T2 sequence: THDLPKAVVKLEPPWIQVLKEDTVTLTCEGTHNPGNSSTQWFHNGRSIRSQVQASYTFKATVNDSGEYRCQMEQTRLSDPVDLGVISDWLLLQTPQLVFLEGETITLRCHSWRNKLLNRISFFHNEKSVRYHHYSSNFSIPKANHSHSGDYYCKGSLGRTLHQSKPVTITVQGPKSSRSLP
The test is described as above.

In test [3] the target is T1, mouse FcγRIII. Nature of the test: SPR (Biacore), antibody captured on Protein L.
Test [4] has as its target T2, mouse FcγRII. Nature of the test: SPR (Biacore), antibody captured on Protein L.

B1: H237-MB703/MRAL-k0 (antibody, mouse IgG1, kappa)
heavy: QVQLQESGPGLVKPSETLSLTCAVSGHSISHDHAWSWVRQPPGEGLEWIGFISYSGITNYNPSLQGRVTISRDNSKNTLYLQMNSLRAEDTAVYYCARSLARTTAMDYWGEGTLVTVSSAKTTPPSVYPLAPGSAAQTNSMVTLGCLVKGYFPEPVTVTWNSGSLSSGVHTFPAVLQSDLYTLSSSVTVPSSTWPSETVTCNVAHPASSTKVDKKIVPRDCGCKPCICEAPEVENVFIFPPKPKDVLTITLTPKVTCVVVDISKDDPEVQFSWFVDDVEVHTAQTQPREEQFNSTFRSVSELPIMHQDWLNGKEFKCRVNSAAFPAPIEKTISKTKGRPKAPQVYTIPPPKEQMAKDKVSLTCMITDFFPEDITVEWQWNGQPAENYKNTQPIMDTDGSYFVYSKLNVQKSNWEAGNTFTCSVLHEGLHNHHTEKSLSHSPGK
light: not shown
notes: copies: 2 + 2
In the case of B1, the “relative mFcγRIII-binding activity (mIgG1 = 1)” value with mouse FcγRIII [1] is 0.1 fold. Moreover, in the test with mouse FcγRII [2], the “relative mFcγRII-binding activity (mIgG1 = 1)” value stood at 0.94 fold. Besides, the equilibrium dissociation constant (Kd) (usually the equilibrium constant for the complex coming apart) came to 4900 nM with mouse FcγRIII [3] and 345 nM with mouse FcγRII [4].

B2: H237-MB709/MRAL-k0 (antibody, mouse IgG1, kappa)
heavy: QVQLQESGPGLVKPSETLSLTCAVSGHSISHDHAWSWVRQPPGEGLEWIGFISYSGITNYNPSLQGRVTISRDNSKNTLYLQMNSLRAEDTAVYYCARSLARTTAMDYWGEGTLVTVSSAKTTPPSVYPLAPGSAAQTNSMVTLGCLVKGYFPEPVTVTWNSGSLSSGVHTFPAVLQSDLYTLSSSVTVPSSTWPSETVTCNVAHPASSTKVDKKIVPRDCGCKPCICEPAEVETVFIFPPKPKDVLTITLTPKVTCVVVDISKDDPEVQFSWFVDDVEVHTAQTQPREEQFNSTFRSVSELPIMHQDWLNGKEFKCRVNSAAFPAPIEKTISKTKGRPKAPQVYTIPPPKEQMAKDKVSLTCMITDFFPEDITVEWQWNGQPAENYKNTQPIMDTDGSYFVYSKLNVQKSNWEAGNTFTCSVLHEGLHNHHTEKSLSHSPGK
light: not shown
notes: copies: 2 + 2
Consider B2, for which the “relative mFcγRIII-binding activity (mIgG1 = 1)” value with mouse FcγRIII [1] is 0.06 fold. The “relative mFcγRII-binding activity (mIgG1 = 1)” value with mouse FcγRII [2] came out at 0.78 fold. Also, the equilibrium dissociation constant (Kd) with mouse FcγRIII [3] stood at 7690 nM; with mouse FcγRII [4], 345 nM.

B3: H237-MB717/MRAL-k0 (antibody, mouse IgG1, kappa)
heavy: QVQLQESGPGLVKPSETLSLTCAVSGHSISHDHAWSWVRQPPGEGLEWIGFISYSGITNYNPSLQGRVTISRDNSKNTLYLQMNSLRAEDTAVYYCARSLARTTAMDYWGEGTLVTVSSAKTTPPSVYPLAPGSAAQTNSMVTLGCLVKGYFPEPVTVTWNSGSLSSGVHTFPAVLQSDLYTLSSSVTVPSSTWPSETVTCNVAHPASSTKVDKKIVPRDCGCKPCICEPNEVEPVFIFPPKPKDVLTITLTPKVTCVVVDISKDDPEVQFSWFVDDVEVHTAQTQPREEQFNSTFRSVSELPIMHQDWLNGKEFKCRVNSAAFPAPIEKTISKTKGRPKAPQVYTIPPPKEQMAKDKVSLTCMITDFFPEDITVEWQWNGQPAENYKNTQPIMDTDGSYFVYSKLNVQKSNWEAGNTFTCSVLHEGLHNHHTEKSLSHSPGK
light: not shown
notes: copies: 2 + 2
On to B3, for which the “relative mFcγRIII-binding activity (mIgG1 = 1)” value in the test with mouse FcγRIII [1] worked out at 0.05 fold. The “relative mFcγRII-binding activity (mIgG1 = 1)” value with mouse FcγRII [2] came out at 0.52 fold. Moreover, the dissociation constant Kd stood at 8620 nM with mouse FcγRIII [3] and 514 nM with mouse FcγRII [4].

B4: H237-MB731/MRAL-k0 (antibody, mouse IgG1, kappa)
heavy: QVQLQESGPGLVKPSETLSLTCAVSGHSISHDHAWSWVRQPPGEGLEWIGFISYSGITNYNPSLQGRVTISRDNSKNTLYLQMNSLRAEDTAVYYCARSLARTTAMDYWGEGTLVTVSSAKTTPPSVYPLAPGSAAQTNSMVTLGCLVKGYFPEPVTVTWNSGSLSSGVHTFPAVLQSDLYTLSSSVTVPSSTWPSETVTCNVAHPASSTKVDKKIVPRDCGCKPCICEPAEEELVFIFPPKPKDVLTITLTPKVTCVVVDISKDDPEVQFSWFVDDVEVHTAQTQPREEQFNSTFRSVSELPIMHQDWLNGKEFKCRVNSAAFPAPIEKTISKTKGRPKAPQVYTIPPPKEQMAKDKVSLTCMITDFFPEDITVEWQWNGQPAENYKNTQPIMDTDGSYFVYSKLNVQKSNWEAGNTFTCSVLHEGLHNHHTEKSLSHSPGK
light: not shown
notes: copies: 2 + 2
Turning to B4, the “relative mFcγRIII-binding activity (mIgG1 = 1)” value with mouse FcγRIII [1] is 0.03 fold. The “relative mFcγRII-binding activity (mIgG1 = 1)” value in the test with mouse FcγRII [2] came to 1.13 fold. Moreover, the values for the equilibrium dissociation constant (Kd) with mouse FcγRIII [3] and in the test with mouse FcγRII [4] were 15300 nM and 238 nM, respectively.

B5: H237-MB732/MRAL-k0 (antibody, mouse IgG1, kappa)
heavy: QVQLQESGPGLVKPSETLSLTCAVSGHSISHDHAWSWVRQPPGEGLEWIGFISYSGITNYNPSLQGRVTISRDNSKNTLYLQMNSLRAEDTAVYYCARSLARTTAMDYWGEGTLVTVSSAKTTPPSVYPLAPGSAAQTNSMVTLGCLVKGYFPEPVTVTWNSGSLSSGVHTFPAVLQSDLYTLSSSVTVPSSTWPSETVTCNVAHPASSTKVDKKIVPRDCGCKPCICEPNEEELVFIFPPKPKDVLTITLTPKVTCVVVDISKDDPEVQFSWFVDDVEVHTAQTQPREEQFNSTFRSVSELPIMHQDWLNGKEFKCRVNSAAFPAPIEKTISKTKGRPKAPQVYTIPPPKEQMAKDKVSLTCMITDFFPEDITVEWQWNGQPAENYKNTQPIMDTDGSYFVYSKLNVQKSNWEAGNTFTCSVLHEGLHNHHTEKSLSHSPGK
light: not shown
notes: copies: 2 + 2
Consider B5, for which the “relative mFcγRIII-binding activity (mIgG1 = 1)” value with mouse FcγRIII [1] turned out to be 0.03 fold. Also, in the test with mouse FcγRII [2], the “relative mFcγRII-binding activity (mIgG1 = 1)” value turned out to be 0.84 fold. Also, the figures for the equilibrium dissociation constant (Kd) with mouse FcγRIII [3] and with mouse FcγRII [4] were 13700 nM and 321 nM, respectively.

B6: H237-MB793/MRAL-k0 (antibody)
heavy: QVQLQESGPGLVKPSETLSLTCAVSGHSISHDHAWSWVRQPPGEGLEWIGFISYSGITNYNPSLQGRVTISRDNSKNTLYLQMNSLRAEDTAVYYCARSLARTTAMDYWGEGTLVTVSSAKTTPPSVYPLAPGSAAQTNSMVTLGCLVKGYFPEPVTVTWNSGSLSSGVHTFPAVLQSDLYTLSSSVTVPSSTWPSETVTCNVAHPASSTKVDKKIVPRDCGCKPCICQPNEVEIVFIFPPKPKDVLTITLTPKVTCVVVDISKDDPEVQFSWFVDDVEVHTAQTQPREEQFNSTFRSVSELPIMHQDWLNGKEFKCRVNSAAFPAPIEKTISKTKGRPKAPQVYTIPPPKEQMAKDKVSLTCMITDFFPEDITVEWQWNGQPAENYKNTQPIMDTDGSYFVYSKLNVQKSNWEAGNTFTCSVLHEGLHNHHTEKSLSHSPGK
light: not shown
notes: 'S2391' in r30c2 read as S239I; copies: 2 + 2
For B6, in the test with mouse FcγRIII [1], the “relative mFcγRIII-binding activity (mIgG1 = 1)” value was determined as 0.07 fold. For the same molecule, the “relative mFcγRII-binding activity (mIgG1 = 1)” value with mouse FcγRII [2] was 1.37 fold. Moreover, the Kd came to 5500 nM with mouse FcγRIII [3] and 179 nM in the test with mouse FcγRII [4].

B7: H237-MB886/MRAL-k0 (antibody, mouse IgG1, kappa)
heavy: QVQLQESGPGLVKPSETLSLTCAVSGHSISHDHAWSWVRQPPGEGLEWIGFISYSGITNYNPSLQGRVTISRDNSKNTLYLQMNSLRAEDTAVYYCARSLARTTAMDYWGEGTLVTVSSAKTTPPSVYPLAPGSAAQTNSMVTLGCLVKGYFPEPVTVTWNSGSLSSGVHTFPAVLQSDLYTLSSSVTVPSSTWPSETVTCNVAHPASSTKVDKKIVPRDCGCKPCICEPNEEESVFIFPPKPKDVLTITLTPKVTCVVVDISKDDPEVQFSWFVDDVEVHTAQTQPREEQFNSTFRSVSELPIMHQDWLNGKEFKCRVNSAAFPAPIEKTISKTKGRPKAPQVYTIPPPKEQMAKDKVSLTCMITDFFPEDITVEWQWNGQPAENYKNTQPIMDTDGSYFVYSKLNVQKSNWEAGNTFTCSVLHEGLHNHHTEKSLSHSPGK
light: not shown
notes: copies: 2 + 2
Turning to B7, in the test with mouse FcγRIII [1], the “relative mFcγRIII-binding activity (mIgG1 = 1)” value was 0.08 fold. Moreover, the “relative mFcγRII-binding activity (mIgG1 = 1)” value in the test with mouse FcγRII [2] worked out at 1.47 fold. Also, the Kd with mouse FcγRIII [3] worked out at 7220 nM; in the test with mouse FcγRII [4] it was 246 nM.

B8: H237-MB718/MRAL-k0 (antibody, mouse IgG1, kappa)
heavy: QVQLQESGPGLVKPSETLSLTCAVSGHSISHDHAWSWVRQPPGEGLEWIGFISYSGITNYNPSLQGRVTISRDNSKNTLYLQMNSLRAEDTAVYYCARSLARTTAMDYWGEGTLVTVSSAKTTPPSVYPLAPGSAAQTNSMVTLGCLVKGYFPEPVTVTWNSGSLSSGVHTFPAVLQSDLYTLSSSVTVPSSTWPSETVTCNVAHPASSTKVDKKIVPRDCGCKPCICEPNEVETVFIFPPKPKDVLTITLTPKVTCVVVDISKDDPEVQFSWFVDDVEVHTAQTQPREEQFNSTFRSVSELPIMHQDWLNGKEFKCRVNSAAFPAPIEKTISKTKGRPKAPQVYTIPPPKEQMAKDKVSLTCMITDFFPEDITVEWQWNGQPAENYKNTQPIMDTDGSYFVYSKLNVQKSNWEAGNTFTCSVLHEGLHNHHTEKSLSHSPGK
light: not shown
notes: copies: 2 + 2
Turning to B8, the “relative mFcγRIII-binding activity (mIgG1 = 1)” value in the test with mouse FcγRIII [1] was found to be 0.08 fold. Further, the “relative mFcγRII-binding activity (mIgG1 = 1)” value with mouse FcγRII [2] amounted to 1.08 fold. For the same molecule, the Kd was determined as 5560 nM with mouse FcγRIII [3] and 247 nM in the test with mouse FcγRII [4].

B9: H237-MB715/MRAL-k0 (antibody, mouse IgG1, kappa)
heavy: QVQLQESGPGLVKPSETLSLTCAVSGHSISHDHAWSWVRQPPGEGLEWIGFISYSGITNYNPSLQGRVTISRDNSKNTLYLQMNSLRAEDTAVYYCARSLARTTAMDYWGEGTLVTVSSAKTTPPSVYPLAPGSAAQTNSMVTLGCLVKGYFPEPVTVTWNSGSLSSGVHTFPAVLQSDLYTLSSSVTVPSSTWPSETVTCNVAHPASSTKVDKKIVPRDCGCKPCICEPNEVEVVFIFPPKPKDVLTITLTPKVTCVVVDISKDDPEVQFSWFVDDVEVHTAQTQPREEQFNSTFRSVSELPIMHQDWLNGKEFKCRVNSAAFPAPIEKTISKTKGRPKAPQVYTIPPPKEQMAKDKVSLTCMITDFFPEDITVEWQWNGQPAENYKNTQPIMDTDGSYFVYSKLNVQKSNWEAGNTFTCSVLHEGLHNHHTEKSLSHSPGK
light: not shown
notes: copies: 2 + 2
As to B9, the “relative mFcγRIII-binding activity (mIgG1 = 1)” value in the test with mouse FcγRIII [1] was found to be 0.04 fold. Further, in the test with mouse FcγRII [2], the “relative mFcγRII-binding activity (mIgG1 = 1)” value stood at 1.14 fold. The dissociation constant Kd in the test with mouse FcγRIII [3] was 11900 nM; with mouse FcγRII [4], 236 nM.
